In assay [1] the target is T1, TLX ligand-binding domain (UniProt Q9Y466 155-385). The assay is described as follows: BLI.
Assay [2] has as its target T1, TLX ligand-binding domain. As to the kind of experiment: AlphaScreen or HTRF.

T1 sequence (Q9Y466 155-385): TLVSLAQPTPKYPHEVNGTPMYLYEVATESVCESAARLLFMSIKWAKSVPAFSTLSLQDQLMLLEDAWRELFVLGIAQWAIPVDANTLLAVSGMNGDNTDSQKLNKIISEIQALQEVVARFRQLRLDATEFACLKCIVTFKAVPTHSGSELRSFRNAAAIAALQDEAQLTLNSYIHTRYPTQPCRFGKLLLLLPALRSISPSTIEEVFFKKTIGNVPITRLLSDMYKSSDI

By Kd is commonly meant the constant that tells how readily two partners part at equilibrium. In assay [1], atrophin corepressor peptide registered a dissociation constant (Kd) of 14.2 µM.

The term EC50 denotes the midpoint of the concentration-response curve. untagged atrophin peptide came in with an EC50 in assay [2] of 1.3 µM.

B1: receptor-interaction domain from NCOA3 (domain or fragment, UniProt Q9Y6Q9 621-821, looked up)
chain: LLQLLTCSSDDRGHSSLTNSPLDSSCKESSVSVTSPSGVSSSTSGGVSSTSNMHGSLLQEKHRILHKLLQNGNSPAEVAKITAEATGKDTSSITSCGDGNVVKQEQLSPKKKENNALLRYLLDRDDPSDALSKELQPQVEGVDNKMSQCTSSTIPSSSQEKDPKIKTETSEEGSGDLDNLDAILGDLTSSDFYNNSISSNG
In the case of B1, the concentration for a half-maximal effect (EC50) in assay [2] came to 3.3 µM.

The record behind these values is publication doi:10.1101/2020.10.28.359810 (bioRxiv, 2020).
